Assay results reported in article PMC11771877 (PLOS Pathogens, 2025).

Legend:
Experiment in all cases: pull-down
Conditions in all cases: both partners purified
[1] = target: R203M and D377Y mutant N protein, His-tagged (SARS-CoV-2, UniProt P0DTC9 1-419, R203M | D377Y)
[2] = target: original purified His-tagged N protein (SARS-CoV-2, UniProt P0DTC9 1-419)
[3] = target: Omicron mutant N protein, His-tagged (SARS-CoV-2, UniProt P0DTC9 1-419, P13L | RG203/204KR)

Measured: binding result

B1: purified RIG-I-GST protein (natural protein)
chain: MTTEQRRSLQAFQDYIRKTLDPTYILSYMAPWFREEEVQYIQAEKNNKGPMEAATLFLKFLLELQEEGWFRGFLDALDHAGYSGLYEAIESWDFKKIEKLEEYRLLLKRLQPEFKTRIIPTDIISDLSECLINQECEEILQICSTKGMMAGAEKLVECLLRSDKENWPKTLKLALEKERNKFSELWIVEKGIKDVETEDLEDKMETSDIQIFYQEDPECQNLSENSCPPSEVSDTNLYSPFKPRNYQLELALPAMKGKNTIICAPTGCGKTFVSLLICEHHLKKFPQGQKGKVVFFANQIPVYEQQKSVFSKYFERHGYRVTGISGATAENVPVEQIVENNDIIILTPQILVNNLKKGTIPSLSIFTLMIFDECHNTSKQHPYNMIMFNYLDQKLGGSSGPLPQVIGLTASVGVGDAKNTDEALDYICKLCASLDASVIATVKHNLEELEQVVYKPQKFFRKVESRISDKFKYIIAQLMRDTESLAKRICKDLENLSQIQNREFGTQKYEQWIVTVQKACMVFQMPDKDEESRICKALFLYTSHLRKYNDALIISEHARMKDALDYLKDFFSNVRAAGFDEIEQDLTQRFEEKLQELESVSRDPSNENPKLEDLCFILQEEYHLNPETITILFVKTRALVDALKNWIEGNPKLSFLKPGILTGRGKTNQNTGMTLPAQKCILDAFKASGDHNILIATSVADEGIDIAQCNLVILYEYVGNVIKMIQTRGRGRARGSKCFLLTSNAGVIEKEQINMYKEKMMNDSILRLQTWDEAVFREKILHIQTHEKFIRDSQEKPKPVPDKENKKLLCRKCKALACYTADVRVIEECHYTVLGDAFKECFVSRPHPKPKQFSSFEKRAKIFCARQNCSHDWGIHVKYKTFEIPVIKIESFVVEDIATGVQTLYSKWKDFHFEKIPFDPAEMSK
notes: also called GST-RIG-I; RIG-I protein (labeled with GST tag); source: E. coli BL21, purified (GSH Magnetic Agarose Beads)
binds: all assays above
